# Assay results published in IntAct's records for PubMed 22842346.
# B1: High mobility group protein B1 (Mus musculus), P63158 (parent)
# chain: MGKGDPKKPRGKMSSYAFFVQTCREEHKKKHPDASVNFSEFSKKCSERWKTMSAKEKGKFEDMAKADKARYEREMKTYIPPKGETKKKFKDPNAPKRPPSAFFLFCSEYRPKIKGEHPGLSIGDVAKKLGEMWNNTAADDKQPYEKKAAKLKEKYEKDIAAYRAKGKPDAAKKGVVKAEKSKKKKEEEDDEEDEEDEEEEEEEEDEDEEEDDDDE
# Variants of: B1
# Details: with havr2_mouse Havcr2, Q8VIM0
# Sequence of havr2_mouse Havcr2, Q8VIM0 (Q8VIM0 whole entry): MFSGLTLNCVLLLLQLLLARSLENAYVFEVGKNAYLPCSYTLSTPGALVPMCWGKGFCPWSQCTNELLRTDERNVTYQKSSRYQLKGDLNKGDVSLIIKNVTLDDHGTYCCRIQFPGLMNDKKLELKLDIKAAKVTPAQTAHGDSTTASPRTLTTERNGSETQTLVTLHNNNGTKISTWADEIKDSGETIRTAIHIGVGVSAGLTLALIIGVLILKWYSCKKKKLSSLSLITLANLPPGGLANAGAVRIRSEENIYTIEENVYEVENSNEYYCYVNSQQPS
row,Variant,effect of a mutation on the interaction
1,MGKGDPKKPRGKMSSYAFFVQTCREEHKKKHPDASVNFSEFSKKCSERWKTMSAKEKGKFEAMAKADKARYEREMKTYIPPKGETKKKFKDPNAPKRPPSAFFLFCSEYRPKIKGEHPGLSIGDVAKKLGEMWNNTAADDKQPYEKKAAKLKEKYEKDIAAYRAKGKPDAAKKGVVKAEKSKKKKEEEDDEEDEEDEEEEEEEEDEDEEEDDDDE [D62A],decreasing interaction
